# Reference: patent publication EP4361176A1
# What was measured:
# [1] = target: human FcγRIIa R extracellular domain (human) (UniProt P12318); experiment: SPR (Biacore 8K+), captured antibody, 1:1 Langmuir model
# [2] = target: human FcγRIIIa V extracellular domain (human) (UniProt P08637); experiment: as above
# [3] = target: human FcγRIIa R extracellular domain (human) (UniProt P12318); experiment: SPR; KD for FcγRIIb divided by KD for this FcγR
# [4] = target: human FcγRIIIa V extracellular domain (human) (UniProt P08637); experiment: SPR; KD for FcγRIIb divided by KD for this FcγR
# [5] = target: human FcγRIIa R extracellular domain (human) (UniProt P12318); experiment: SPR; KD of G1d divided by KD of this antibody
# [6] = target: human FcγRIIIa V extracellular domain (human) (UniProt P08637); experiment: SPR; KD of G1d divided by KD of this antibody
# [7] = target: human FcγRIIb extracellular domain with C-terminal His-tag (human) (UniProt P31994); experiment: SPR (Biacore T200), FcγRIIb 1000 nM, amount bound per unit captured antibody
# [8] = target: human FcγRIIb extracellular domain with C-terminal His-tag (human) (UniProt P31994); experiment: SPR; binding amount / that of MDX10D1H-G1m/MDX10D1L-k0MT
# Sequence of H240-GASDALIE/L73-k0 (antibody) (heavy): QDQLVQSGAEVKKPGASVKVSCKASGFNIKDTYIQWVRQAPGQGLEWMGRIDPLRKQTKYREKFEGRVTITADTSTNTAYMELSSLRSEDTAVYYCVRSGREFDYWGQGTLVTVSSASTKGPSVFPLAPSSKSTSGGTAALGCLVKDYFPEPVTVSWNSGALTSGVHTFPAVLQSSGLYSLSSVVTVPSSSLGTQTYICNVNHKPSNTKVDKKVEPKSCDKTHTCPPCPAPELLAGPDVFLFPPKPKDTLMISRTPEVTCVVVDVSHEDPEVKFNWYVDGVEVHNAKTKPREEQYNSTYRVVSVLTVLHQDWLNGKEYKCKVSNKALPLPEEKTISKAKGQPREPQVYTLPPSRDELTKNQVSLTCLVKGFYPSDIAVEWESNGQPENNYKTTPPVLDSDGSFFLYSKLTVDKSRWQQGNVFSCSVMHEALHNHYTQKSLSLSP
# Sequence of H240-GASDALIE/L73-k0 (antibody) (light): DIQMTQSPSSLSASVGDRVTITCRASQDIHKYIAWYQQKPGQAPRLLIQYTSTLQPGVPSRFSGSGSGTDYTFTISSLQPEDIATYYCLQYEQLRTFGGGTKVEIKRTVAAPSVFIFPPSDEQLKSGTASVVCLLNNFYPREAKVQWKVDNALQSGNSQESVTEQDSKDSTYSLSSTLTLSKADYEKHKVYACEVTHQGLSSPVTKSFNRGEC
# Sequence of human FcγRIIb extracellular domain with C-terminal His-tag (human) (P31994 43-217): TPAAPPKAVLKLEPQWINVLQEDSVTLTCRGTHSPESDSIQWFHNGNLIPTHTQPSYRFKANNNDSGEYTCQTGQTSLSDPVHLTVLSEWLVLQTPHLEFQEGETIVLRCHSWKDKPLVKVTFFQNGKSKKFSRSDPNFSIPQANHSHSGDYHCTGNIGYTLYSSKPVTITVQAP
Kd [1] [nM],Kd [2] [nM],A/I ratio (KD for FcγRIIb divided by KD for each FcyR) [3],A/I ratio (KD for FcγRIIb divided by KD for each FcyR) [4],Relative value to KD between G1d and hFcgRs [5],Relative value to KD between G1d and hFcgRs [6],Binding amount [7],Relative binding amount [8],Substance
161,15.2,16.5,176,10.3,23.6,,,H240-GASDALIE/L73-k0 (antibody)
,,,,,,0.012,,MDX10D1H-G1m/MDX10D1L-k0MT (antibody)
,,,,,,0.072,5.8,MDX10D1H-GASDIE/MDX10D1L-k0MT (antibody)
